According to patent US12508311B2, “Fusion protein, and preparation method and use thereof” (SUN YAT-SEN UNIVERSITY, priority 2021, dated 2025):

Key:
KRas protein = target: T1, KRas protein (Homo sapiens, UniProt P01116); assay: SPR binding capacity experiment (BiacoreT200); conditions: in vitro; for binding capacity with the KRas protein (SPR): molecule coupled on CM5 chip, KRas flowing
T1 construct: made in house
Protocol: 100 μL of coating solution was added into each well of 96-well ELISA plate to coat overnight at 4° C. • (3) Blocking: the ELISA plate was cleaned with a phosphate buffer solution (PBS) (PBS formula: 4 g of NaCl, 0.1 g of KCl, 1.815 g of disodium hydrogen phosphate dodecahydrate, and 0.12 g of […], dissolved in 400 mL of ultrapure water, with a constant volume of 500 mL for use) for 5 minutes each time. 300 μL of 5% (w/v) bovine serum albumin was added into each well, and blocked at 37° C. for 2 hours. • (4) Adding of the purified protein KRas: 6.25 μg, 12.5 μg, 25 μg, 50 μg and 100 μg of purified protein were respectively pre-mixed and diluted in 200 μL of PBS, and the diluted KRas protein was added into the wells in sequence, and slowly shaken at the room temperature for 5 hours. […] Main steps of the example were as follows: • (1) Coupling of ligand: the target coupling amount was calculated according to the following formula:
[formula] wherein Rmax was the maximum binding capacity on the chip surface, and 100 RU was usually substituted in a protein test. […] Through the preconcentration experiment, it was determined that pH 5.0 was the optimal coupling condition. […] In this experiment, aimforimmobilized level was selected, and the calculated 110RU was inputted in target level. […]

[1] = test system: signal pathway KRas/Raf/ERK/c-myc in KRas mutant-type cells HCT116; assay: Western blot of EGFR downstream signal pathway, HCT116; assay type: cell-based, human; conditions: 10 and 20 μg/mL, 24 hours, compared with control TKDm
Protocol: • (1) The colorectal cancer cells HCT116 (KRas G13D) and HT29 (KRas wt) were respectively spread in six-well plates, 500,000 cells per well. […] Then, the digestion was stopped with 1 mL of complete culture solution per well, the cell suspension was collected into a 1.5 mL EP tube, and centrifuged at the room temperature and 300 g for 3 minutes to collect cells. The cells were resuspended with 1 mL of PBS, and repeatedly centrifuged once. • (3) The supernatant was removed, 100 μL of lysate was added in each group (item number: P0013G; purchased from Beyotime Biotechnology Company). The cells were lysed on ice, vortically vibrated every 5 minutes, and centrifuged at 4° C. and 12,000 rpm for 30 minutes after being lysed for 30 minutes, and the supernatant was collected in a new 1.5 mL EP tube. • (4) The protein concentration was measured by the BCA method, and 20 μg of protein was taken from each group for SDS denaturation gel electrophoresis, transferred and blocked with 5% skim milk for 1 hour.

HCT116 (KRas G13D) = assay: CCK-8 cell proliferation experiment, HCT116; conditions: 10 and 20 μg/mL, 24 hours
Description: (§1) CCK-8 was a highly sensitive and non-radioactive colorimetric method for determining the number of living cells in the cell proliferation or toxicity test.

HT29 (KRas wt) = assay: CCK-8 cell proliferation experiment, HT29; conditions: 10 and 20 μg/mL, 24 hours
Description: as §1

T1 sequence (P01116 whole entry): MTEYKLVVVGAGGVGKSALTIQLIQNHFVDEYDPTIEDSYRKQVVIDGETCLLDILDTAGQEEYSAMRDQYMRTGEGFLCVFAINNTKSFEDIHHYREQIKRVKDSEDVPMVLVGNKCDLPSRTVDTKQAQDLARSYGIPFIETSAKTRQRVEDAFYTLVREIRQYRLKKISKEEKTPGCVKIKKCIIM

Molecule	level of binding between TKD and the KRas protein (SPR) (KRas protein)	binding capacity with the KRas protein (SPR) (KRas protein)	inhibition of activation of EGFR downstream signal pathway KRas/Raf/ERK/c-myc (western blot) [1]	inhibition of cell growth (CCK-8) (HCT116 (KRas G13D))	inhibition of cell growth (CCK-8) (HT29 (KRas wt))
TKD: fusion protein: tumour-cell-penetrating peptide BR2, anti-KRas nanobody VHH and lysosome recognition peptide CTM; SEQ ID NO.4 (protein) RAGLQFPVGRLLRRLLRDVQLQESGGGLVQAGGSLRLSCVASGRTFSTYPTGWFRQAPGKEREFVARINLSGGITNYADSVKGRFTISRDNAKNTVYLQMNSLKPEDTAVYYCGGGSTTWAGGIPTNFDYWGQGTQVTVSSGRKFERQKILDQRFFE	reached the level of antigen-antibody binding (nM)	had a strong binding capacity with the KRas protein in vitro	could significantly inhibit the activation of the EGFR downstream signal pathway KRas/Raf/ERK/c-myc	could significantly inhibit growth	could significantly inhibit growth
TKDm: control molecule of TKD with mutated CTM fragment (CTMmt) which could not be recognized by a lysosome; SEQ ID NO.5 (protein) RAGLQFPVGRLLRRLLRDVQLQESGGGLVQAGGSLRLSCVASGRTFSTYPTGWFRQAPGKEREFVARINLSGGITNYADSVKGRFTISRDNAKNTVYLQMNSLKPEDTAVYYCGGGSTTWAGGIPTNFDYWGQGTQVTVSSGRKFERAKILDARFFE	–	had a strong binding capacity with the KRas protein in vitro	–	could not achieve the same effect	could not achieve the same effect
